Experimental findings from CN107043423A (JIANGSU HENGRUI MEDICINE CO; SHANGHAI HENGRUI …, dated 2017) are described below.

The target in assay [1] is T1, 带His标签的人凝血酶 (human, UniProt P00734 328-622). As to the kind of experiment: ELISA, biotinylated His-tagged human thrombin on streptavidin plate. On the technique in general: In an ELISA, binding on a coated surface is turned into a signal by an enzyme label.
Another assay concerns the target T2, 带His标签的人凝血酶原 (human, UniProt P00734 44-622).
T2 construct: Zymogen precursor of thrombin, expressed in HEK293E; also called h-prothrombin-his; 人Pro凝血酶
As to the kind of experiment: BIAcore SPR, antibody captured by anti-human capture antibody on CM5 chip, His-tagged prothrombin in flow. Background: SPR reads the build-up and loss of mass on a sensor chip optically.

The target in assay [2] is T1, 带His标签的人凝血酶. As to the kind of experiment: BIAcore SPR, antibody captured by anti-human capture antibody on CM5 chip, His-tagged thrombin in flow.

B1: 人源化抗体H1512-8 (antibody, human IgG4 S228P, kappa, V domains shown)
VH: EVQLVESGGGLVQPGGSLRLSCAASGFTVSNYDMSWVRQAPGKGLEWVSMIETDGSIFHASWVNGRFTISRDNSKNTLYLQMNSLRAEDTAVYYCARGSNDYDAYGYPYFTLWGQGTLVTVSS
VL: ELVLTQSSSASASLGSSVKLTCTLSSAHETYTIDWYQQQPGKAPRYLMELKSDGSYNKGAGVPDRFSGSSSGADRYLTISNLQLEDEATYHCGADFSDGYVFGGGTKVEIKR
notes: Humanized antibody
A word on the EC50: it is the concentration giving half of the maximal effect. Higher therefore signals a need for much substance. Consider B1, for which the EC50 with 带His标签的人凝血酶 [1] was 19.3 nM.

B2: 人源化抗体H1512-12 (antibody, human IgG4 S228P, kappa, V domains shown)
VH: EVQLVESGGGLVQPGGSLRLSCAASGFTVSNYDMSWVRQAPGKGLEWIGMIETDGSIFHASWVNGRFTISKDNSKNTVYLQMNSLRAEDTAVYFCVRGSNDYDAYGYPYFTLWGQGTLVTVSS
VL: QLVLTQSSSASASLGSSVKLTCTLSSAHETYTIDWYQQQPGKAPRYLMELKSDGSYNKGAGVPDRFSGSSSGADRYLTISNLQLEDEATYHCGADFSDGYVFGGGTKVEIKR
notes: Humanized antibody; also called 抗凝血酶抗体H1512-12
For orientation: Kd means the concentration at which binding is half-saturated. Take B2: the results for the dissociation constant (Kd) in the assay with 带His标签的人凝血酶原 and with 带His标签的人凝血酶 [2] were 26.4 nM and 2.79 nM, respectively. This molecule came in with an EC50 with 带His标签的人凝血酶 [1] of 0.16 nM.

B3: 人源化抗体H1512-1 (antibody, human IgG4 S228P, kappa, V domains shown)
VH: EVQLVESGGGLVQPGGSLRLSCAASGFTVSNYDMSWVRQAPGKGLEWVSMIETDGSIFHASWVNGRFTISRDNSKNTLYLQMNSLRAEDTAVYYCARGSNDYDAYGYPYFTLWGQGTLVTVSS
VL: QPVLTQSSSASASLGSSVKLTCTLSSAHETYTIDWHQQQPGKAPRYLMKLKSDGSYNKGAGVPDRFSGSSSGADRYLTISNLQLEDEADYYCGADFSDGYVFGGGTKVEIKR
notes: Humanized antibody
B3: the EC50 with 带His标签的人凝血酶 [1] was 43.4 nM.
